US20190241886A1

Molecular target: CD137 (soluble antigen for staining of yeast) (human) (UniProt Q07011)
Assay: flow cytometry of yeast displaying the scFv, stained with human CD137; number printed over the dot plot, y axis CD137 binding (FL2-A PE-A), x axis scFv display

Sequence of CD137 (soluble antigen for staining of yeast) (human) (Q07011 24-186 limits assumed): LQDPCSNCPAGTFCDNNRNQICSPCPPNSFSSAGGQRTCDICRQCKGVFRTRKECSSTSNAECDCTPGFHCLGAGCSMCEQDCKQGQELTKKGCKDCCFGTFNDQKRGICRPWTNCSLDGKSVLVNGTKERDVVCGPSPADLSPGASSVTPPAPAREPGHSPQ

B1: scFv of parental CD137 antibody TY21242 displayed on yeast (scFv, part only; not given: linker, Aga2 and tag, V domains shown, not shown: another chain or arm of the molecule; large carriers; small tags and cut ends)
VL: DIQLTQSPSSLSASVGDRVTITCRASQSIGSYLAWYQQKPGKAPKLLIYDASNLETGVPSRFSGSGSGTDFTLTISSLQPEDFATYYCQQGYYLWTFGQGTKVEIK
VH: EVQLVESGGGLVQPGGSLRLSCAASGFSLSTGGVGVGWIRQAPGKGLEWLALIDWADDKYYSPSLKSRLTISRDNSKNTLYLQLNSLRAEDTAVYYCARGGSDTVIGDWFAYWGQGTLVTVSS
Question: B1 was tested. Which Y did it give?
Answer: 19200
